# From paper PMC3894988, “Human Variants in the Neuronal Basic Helix-Loop-Helix/Per-Arnt-Sim (bHLH/PAS) Transcription Factor Complex NPAS4/ARNT2 Disrupt Function” (PLoS ONE, 2014)
# Numbering of substitutions follows the chain as printed. In names and notes the source's numbering stands.
# B1: NPAS4.F147S-mycFlag (natural protein)
# chain: MYRSTKGASKARRDQINAEIRNLKELLPLAEADKVRLSYLHIMSLACIYTRKGVFFAGGTPLAGPTGLLSAQELEDIVAALPGFLLVFTAEGKLLYLSESVSEHLGHSMVDLVAQGDSIYDIIDPADHLTVRQQLTLPSALDTDRLSRCRFNTSKSLRRQSAGNKLVLIRGRFHAHPPGAYWAGNPVFTAFCAPLEPRPRPGPGPGPGPASLFLAMFQSRHAKDLALLDISESVLIYLGFERSELLCKSWYGLLHPEDLAHASAQHYRLLAESGDIQAEMVVRLQAKTGGWAWIYCLLYSEGPEGPITANNYPISDMEAWSLRQQLNSEDTQAAYVLGTPTMLPSFPENILSQEECSSTNPLFTAALGAPRSTSFPSAPELSVVSASEELPRPSKELDFSYLTFPSGPEPSLQAELSKDLVCTPPYTPHQPGGCAFLFSLHEPFQTHLPTPSSTLQEQLTPSTATFSDQLTPSSATFPDPLTSPLQGQLTETSVRSYEDQLTPCTSTFPDQLLPSTATFPEPLGSPAHEQLTPPSTAFQAHLDSPSQTFPEQLSPNPTKTYFAQEGCSFLYEKLPPSPSSPGNGDCTLLALAQLRGPLSVDVPLVPEGLLTPEASPVKQSFFHYSEKEQNEIDRLIQQISQLAQGMDRPFSAEAGTGGLEPLGGLEPLDSNLSLSGAGPPVLSLDLKPWKCQELDFLADPDNMFLEETPVEDIFMDLSTPDPSEEWGSGDPEAEGPGGAPSPCNNLSPEDHSFLEDLATYETAFETGVSAFPYDGFTDELHQLQSQVQDSFHEDGSGGEPTF
# B2: NPAS4.F147A-mycFlag (natural protein, human, UniProt Q8IUM7 1-802, looked up)
# chain: B1 chain with S147A
# What was measured:
# [1] = target: endogenous ARNT2 (HEK293T) (human (endogenous in HEK293T)) (UniProt Q9HBZ2)
# [2] = target: ARNT2, overexpressed (human Aryl hydrocarbon Receptor Nuclear Translator 2) (human, UniProt Q9HBZ2 1-717); test: cell-based or functional assay
# ARNT2, overexpressed (human Aryl hydrocarbon Receptor Nuclear Translator 2), sequence (Q9HBZ2 whole entry): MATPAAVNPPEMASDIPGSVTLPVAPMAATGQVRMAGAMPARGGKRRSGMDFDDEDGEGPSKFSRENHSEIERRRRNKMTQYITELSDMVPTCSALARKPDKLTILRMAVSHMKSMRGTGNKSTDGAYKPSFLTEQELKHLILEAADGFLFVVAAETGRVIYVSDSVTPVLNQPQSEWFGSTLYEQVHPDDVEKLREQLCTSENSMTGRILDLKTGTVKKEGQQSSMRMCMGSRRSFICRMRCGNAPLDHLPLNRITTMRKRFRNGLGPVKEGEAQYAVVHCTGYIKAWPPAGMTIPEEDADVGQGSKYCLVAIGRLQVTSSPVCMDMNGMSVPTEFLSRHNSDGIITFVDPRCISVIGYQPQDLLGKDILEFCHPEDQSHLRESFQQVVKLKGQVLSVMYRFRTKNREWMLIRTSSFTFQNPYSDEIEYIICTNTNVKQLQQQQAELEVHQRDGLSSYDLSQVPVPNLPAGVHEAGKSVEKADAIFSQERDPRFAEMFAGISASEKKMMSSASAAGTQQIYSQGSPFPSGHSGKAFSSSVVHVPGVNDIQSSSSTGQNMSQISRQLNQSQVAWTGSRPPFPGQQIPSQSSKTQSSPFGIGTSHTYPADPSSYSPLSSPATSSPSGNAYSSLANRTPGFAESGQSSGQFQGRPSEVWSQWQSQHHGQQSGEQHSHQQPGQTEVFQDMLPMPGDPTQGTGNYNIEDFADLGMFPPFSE
# endogenous ARNT2 (HEK293T) (human (endogenous in HEK293T)), sequence (Q9HBZ2 whole entry): as above
Binder,"induction of BDNF exon I mRNA in 293TREX cells (quantitative real-time PCR), reduction against WT NPAS4 [1]","activity on the 6xCME-Luc luciferase reporter gene in HEK293T cells, percent of WT NPAS4 [2]"
B1,90%,
B2,,~65 % of wt
